Assay results from US20140147490A1, “HLA CLASS I A2 TUMOR ASSOCIATED ANTIGEN PEPTIDES AND VACCINE COMPOSITIONS” (priority 2012, published 2014).

B1: Her2/neu.665 (peptide)
peptide: VVLGVVFGI
notes: native HER2/neu peptide
B2: Her2/neu.48 (peptide)
peptide: HLYQGCQVV
notes: native HER2/neu peptide

Experiments:
[1] = system: patients with recurrent or residual cervical carcinoma; settings: cited from earlier work
[2] = molecular target: T1, HLA-A*6802 (human, UniProt P30375 25-308 (Gorilla gorilla entry), limits assumed); test: competitive binding assay, purified HLA
T1 construct: purified HLA molecule; b2m and chain limits not described
T1 MHC heavy: not shown

[3] = molecular target: T1, HLA-A*6802; test: competitive inhibition assay, purified HLA

Molecule | responding patients ([1]; 95% interval 10-65%) [%] | safety ([1]; immunocompromised cervical carcinoma patients) | IC50 [2] [nM] | IC50 [3] [nM]
aKXVAAWTLKAAa-NH2 [PADRE] | 33 | favorable safety profile |  | 
B1 |  |  | 2000 | 2000
B2 |  |  |  | 1140
